Molecular target: the molecule itself
Test: FRET or BRET + split reporter

B1: Adenosine A2A receptor (receptor, UniProt P29274 1-412, looked up)
chain: MPIMGSSVYITVELAIAVLAILGNVLVCWAVWLNSNLQNVTNYFVVSLAAADIAVGVLAIPFAITISTGFCAACHGCLFIACFVLVLTQSSIFSLLAIAIDRYIAIRIPLRYNGLVTGTRAKGIIAICWVLSFAIGLTPMLGWNNCGQPKEGKNHSQGCGEGQVACLFEDVVPMNYMVYFNFFACVLVPLLLMLGVYLRIFLAARRQLKQMESQPLPGERARSTLQKEVHAAKSLAIIVGLFALCWLPLHIINCFTFFCPDCSHAPLWLMYLAIVLSHTNSVVNPFIYAYRIREFRQTFRKIIRSHVLRQQEPFKAAGTSARVLAAHGSDGEQVSLRLNGHPPGVWANGSAPHPERRPNGYALGLVSGGSAQESQGNTGLPDVELLSHELKGVCPEPPGLDDPLAQDGAGVS
B1 was tested, and the “stoichiometry N” value was ≥ 3.

From paper PMC2990800 (Molecular and cellular endocrinology, 2010)
